# Source: patent publication US20250382355A1 (Merck Sharp & Dohme, published 2025)
# Legend:
# [1] = biological target: T1, SARS-CoV-2 prefusion-stabilized spike protein (SARS-CoV-2-PreS) (SARS-CoV-2, UniProt P0DTC2 14-1208); assay: Biacore, apparent affinity
# [2] = biological target: T1, SARS-CoV-2 prefusion-stabilized spike …; assay: ELISA
# [3] = biological target: T2, Biotinylated CoV2 Spike ECD PreS-AVI protein (SARS-CoV-2, UniProt P0DTC2 14-1208); assay: Octet binning; competitor 7A9
# [4] = biological target: T2, Biotinylated CoV2 Spike ECD PreS-AVI …; assay: Octet binning; competitor 8E9
# [5] = biological target: T2, Biotinylated CoV2 Spike ECD PreS-AVI …; assay: Octet binning; competitor 9B2
# [6] = biological target: T2, Biotinylated CoV2 Spike ECD PreS-AVI …; assay: Octet binning; competitor 11F8
# [7] = biological target: T2, Biotinylated CoV2 Spike ECD PreS-AVI …; assay: Octet binning; competitor 13C8
# [8] = biological target: T2, Biotinylated CoV2 Spike ECD PreS-AVI …; assay: Octet binning; competitor 15H1
# [9] = biological target: T2, Biotinylated CoV2 Spike ECD PreS-AVI …; assay: Octet binning; competitor 15H7
# [10] = biological target: T2, Biotinylated CoV2 Spike ECD PreS-AVI …; assay: Octet binning; competitor 1A11
# [11] = biological target: T2, Biotinylated CoV2 Spike ECD PreS-AVI …; assay: Octet binning; competitor Std-A
# [12] = biological target: T2, Biotinylated CoV2 Spike ECD PreS-AVI …; assay: Octet binning; competitor Std-B
# [13] = biological target: T2, Biotinylated CoV2 Spike ECD PreS-AVI …; assay: Octet binning; competitor Std-D
Binder,Kd [1] [nM],further results
19B8 VHH (VHH) VHH: QVQLVESGGGLVQAGGSLRLSCAASGRTFTNYAMGWFRQAPGKEREFVAAISWSGGGTNYADSVKGRFTISRDNAKNTVYLQMNSPKPEDTAVYYCATTLGYYGSSSRLYEYWGQGTQVTVSS,87,
1A11 VHH (VHH) VHH: QVQLVESGGGLVQAGGSLRLSCEVSGSIYSINSMGWYRQAPGKQRELVAGIVSDGRINYADSVKGRFTISRAKNTVYLQMNSLKPEDTAVYYCAADRAFVYAGDYDYLGQGTQVTVSS,< 0.2,
10B8 VHH (VHH) VHH: QVQLVESGGGLVQPGGSLRLSCAASGITLDYYAIAWFRQAPGKEREGVSCFCSSDGDIRYADSVKGRFTISRDNAKNTVYLQMNSLKPEDTAVYYCATERVYSSTWFFHRYSELDFGSWGRGTQVTVSS,< 0.2,
19E10 VHH (VHH) VHH: QVQLVESGGGLVQPGGSLRLSCVASGSTISINSMGWYRQAPGKAREMVATITNDGPIKYADPVKGRFTISRDNPKNTVYLQMNSLKPEDTAVYYCVADRAYWLAGEWEYWGQGTQVTVSS,0.73,
11F5 VHH (VHH) VHH: QVQLVESGGGAVQAGDSLRLSCTASGRTFSTYAVGWFRQAPGKERELLAAITGSGRNPYYPDSLKGRFTISREYAKLPVYLQMNSLKPEDTAVYYCAARRGAIATMPLDYDHWGQGTQVTVSS,8,
15H1 VHH (VHH) VHH: QVQLVESGGGLAQAGGSLRLSCASSGLIFSGSAMGWFRQAPGKEREFVGVISWNGRTTYADSVKGRFTISRDDAVNMVWLQMNNLKPEDTAVYYCAADHLNYGSGDVNPRTYDYWGQGTQVTVSS,0.6,
11F8 VHH-Fc (Fc fusion) QVQLVESGGGLVQAGGSLRLSCAASGRTVGYYAVGWFRQAPGKERDFVAAISWSGRNTNYADSVTGRFTIFRDNAKNTVDLQMNSLKPEDTAVYYCAADYWNYGSGSEVPNNYDTWGQGTQVTVSS,< 0.2,EC50 [2]: 0.19 nM; binning response [3]: 0.35; binning response [4]: 0.12; binning response [5]: 0.13; binning response [6]: 0.14; binning response [7]: 0.15; binning response [8]: 0.15; binning response [9]: 0.14; binning response [10]: 0.12; binning response [11]: 0.17; binning response [12]: 0.29; binning response [13]: 0.08
11F8 VHH (VHH) VHH: QVQLVESGGGLVQAGGSLRLSCAASGRTVGYYAVGWFRQAPGKERDFVAAISWSGRNTNYADSVTGRFTIFRDNAKNTVDLQMNSLKPEDTAVYYCAADYWNYGSGSEVPNNYDTWGQGTQVTVSS,0.95,
9B2 VHH (VHH) VHH: QVQLVESGGGLVQPGGSLRLSCAASGFTLDNYAIGWFRQAPGKEREGVSCISSSDGDTQYADSVKGRFTISRDNAKNTVYLQMNSLKPEDTAVYYCAVEKVYARSWFFHLCSELDFGSWGQGTQVTVSS,0.61,
3D4 VHH (VHH) VHH: QVQLVESGGGLVQPGGSLRLSCAASGFTLDLNSIGWFRQAPGKEREGVSCISPSGSRMHYADSVKGRFTISRDNAKNTVYLQMNSLKPEDTAVYYCATGSPSYHYCSMYGLEYDSWGQGTQVTVPS,< 0.2,
19C10 VHH (VHH) VHH: QVQLVESGGGLVQPGGSLRLSCAASGFTLDLNSIGWFRQAPGKEREGVSCISPSASSTHYADSVKGRFTISRDNAKNTVYLQMNSLKPEDTAVYYCATGTPSYHYCSMYGLEYDDWGQGTQVTVSS,< 50,
8E9 VHH (VHH) VHH: QVQLVESGGGLVEAGGSLRLSCVASGSSSSINAMGWYRQAPGKQRELVASISHDGETKYANSVKGRFTISRGNAKNTIYLQMNSLKPEDTAVYYCVGDVAWVVVAGEYDYWGQGTQVTVSS,5.7,
13C8 VHH-Fc (Fc fusion) QVQLVESGGGLVQAGGSLRLSCAASGRTVNKYMTGWFRQTPGKEREFVASIDWSSTTTHYANSVKGRFTISRDKVKNTVYLQMNGLKPEDTAVYYCAAHQDSSYGYTILPIDYDSWGQGTQVTVSS,< 0.2,EC50 [2]: 0.09 nM; binning response [3]: 0.37; binning response [4]: 0.09; binning response [5]: 0.11; binning response [6]: 0.11; binning response [7]: 0.1; binning response [8]: 0.11; binning response [9]: 0.1; binning response [10]: 0.11; binning response [11]: 0.34; binning response [12]: 0.31; binning response [13]: 0.04
13C8 VHH (VHH) VHH: QVQLVESGGGLVQAGGSLRLSCAASGRTVNKYMTGWFRQTPGKEREFVASIDWSSTTTHYANSVKGRFTISRDKVKNTVYLQMNGLKPEDTAVYYCAAHQDSSYGYTILPIDYDSWGQGTQVTVSS,12,
20D11 VHH (VHH) VHH: QVQLVESGGGLVQAGGSLRLSCAASGRTSSIYSVGWFRQAPGKERELVAGITWSGGTTYYSDSVKGRFTISRDNAKNTVNLQMNNLKPEDTAIYYCAVDRYSMTMSARDYDYWGQGTQVTVSS,2.2,
5G11 VHH (VHH) VHH: QVQLVESGGGLVQAGGSLRLSCAASGRTFSIYAVGWFRQAPGKERDFVAGITWSGGTTYYSDSVKGRFTISRDNAKNTVYLQMNNLKPEDTAIYYCAVDTYSMTLSARSYDYWGQGTQVTVSS,93,
14F3 VHH (VHH) VHH: QVQLVESGGGLVQAGGSLRLSCAASGRTSSIYGVGWFRQAPGKERELVALITWSGGTTYYSDSVKGRFTISKDNAKNTVFLQMNNLKPEDTAIYYCAVDTYSMTMSARDYEYWGQGTQVTVSS,3,
15H7 VHH (VHH) VHH: QVQLVESGGRLVQAGGSLRLSCAAPGRTFRNLTLGWFRQAPGKEREFVASTSWPDDEMTYYTDSVKGRFTISRDNAKNTVYLQMNSLKPEDTAVYYCAAASWSGRSTLSYDYDYWGQGTQVTVST,0.33,
7A9 VHH (VHH) VHH: QVQLVESGGGLVQAGGSLRLSCSASGGTASRSAMGWFRQAPGKEREFVAGISRRNSGSTYVADSYEDSVKGRFTISRDNAKNTIYLQMNSLKPEDTAVYYCAAEPTLGWYVPRRSVEYEYWGQGTQVTVSS,0.22,
5A6 VHH (VHH) VHH: QVQLVESGGGLAQAGGSLRLSCATSGLTFSMSAMGWFRQAPGNEREFVGVINWNGGSSRYADSVRGRFTISRDNAKNTVYLQMNSLKPEDTGVYYCAADALNIGTGEVNPRLYDYWGQGTQVMVSS,0.46,
16H7 VHH (VHH) VHH: QVQLVESGGGLVQAGGSLRLSCAASGRAFSKDTMGWFRQAPGKEREFVAVISASGDSTYYADFVKGRFTISRDNAKNTEYLQMNSLKPEDTAVYHCAADGARAYYSINAHRYSWAYNYWGQGTQVTVSS,230,
5D7 VHH (VHH) VHH: QVQLVESGGGLVQAGGSLRLSCAASGRTGSRYIMGWFRQAPGKEREFVAAINWRGDSTYYADSVKGRFTIARDNAKNTAYLQMNSLKPEDTAVYYCVADRGESYYYTRSTEYTYWGQGTQVTVSS,1.5,
6A1 VHH (VHH) VHH: QVQLVESGGGLVQAGGSLRLSCTASGNIFSVNVMGWHRQAPGKRRELVAALTNDGRRNYADSVKGRFTISRDNAKNTIYLEMNSLKPEDTAVYYCGTGTLESGFNSWGQGLQVTVSS,> 500,
1E4 VHH (VHH) VHH: QVLLVESGGGLVQAGGLLRLACSASGRTFTENVMGWFRQAPGKEREFVAAINWNTGSTYYSDSRKGRFTISKDNAKNTMFLQINNLKPEDTAVYYCGGTSSSYYYIGEFIPDYWGQGTQVTVSS,0.25,
